Source: article PMC9482650, “Quantitative fragmentomics allow affinity mapping of interactomes” (Nature Communications, 2022)

T1: MPDZ_13, O75970
T1 sequence (O75970 1982-2070, limits assumed, looked up): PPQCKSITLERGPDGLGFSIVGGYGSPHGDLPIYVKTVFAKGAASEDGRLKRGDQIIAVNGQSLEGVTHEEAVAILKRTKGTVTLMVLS

T2: MLLT4, P55196
T2 sequence (P55196 1002-1103, limits assumed, looked up): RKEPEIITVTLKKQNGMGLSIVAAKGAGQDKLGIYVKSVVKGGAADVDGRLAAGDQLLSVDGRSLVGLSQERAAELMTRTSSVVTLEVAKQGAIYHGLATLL

T3: SHROOM3, Q8TF72
T3 sequence (Q8TF72 20-120, limits assumed, looked up): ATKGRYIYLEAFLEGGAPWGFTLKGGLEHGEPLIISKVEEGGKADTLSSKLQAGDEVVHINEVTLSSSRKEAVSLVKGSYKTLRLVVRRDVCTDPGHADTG

T4: PDZRN3_2, Q9UPQ7
T4 sequence (Q9UPQ7 414-513, limits assumed, looked up): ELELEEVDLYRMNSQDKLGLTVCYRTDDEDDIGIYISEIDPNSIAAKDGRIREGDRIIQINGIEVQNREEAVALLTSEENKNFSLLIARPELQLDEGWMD

T5: USH1C_2, Q9Y6N9
T5 sequence (Q9Y6N9 206-303, limits assumed, looked up): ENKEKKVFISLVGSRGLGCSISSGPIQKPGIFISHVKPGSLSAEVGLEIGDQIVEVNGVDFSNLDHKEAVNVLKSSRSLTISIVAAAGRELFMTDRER

T6: PDLIM3, Q53GG5
T6 sequence (Q53GG5 1-94, limits assumed, looked up): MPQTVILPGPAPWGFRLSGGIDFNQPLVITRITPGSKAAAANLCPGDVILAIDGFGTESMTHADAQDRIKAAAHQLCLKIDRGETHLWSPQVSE

T7: PTPN13_5, Q12923
T7 sequence (Q12923 1877-1975, limits assumed, looked up): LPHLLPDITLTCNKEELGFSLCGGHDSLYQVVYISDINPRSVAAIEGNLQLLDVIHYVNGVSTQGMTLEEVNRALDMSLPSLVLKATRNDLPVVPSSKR

T8: SHROOM2, Q13796
T8 sequence (Q13796 21-118, limits assumed, looked up): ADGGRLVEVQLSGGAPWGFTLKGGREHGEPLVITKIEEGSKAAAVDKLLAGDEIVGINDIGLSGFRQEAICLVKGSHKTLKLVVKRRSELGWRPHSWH

T9: MPP5, Q8N3R9
T9 sequence (Q8N3R9 251-346, limits assumed, looked up): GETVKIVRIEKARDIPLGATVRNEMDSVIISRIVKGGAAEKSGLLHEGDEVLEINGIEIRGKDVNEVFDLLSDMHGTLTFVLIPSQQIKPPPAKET

T10: PDZD7_1, Q9H5P4
T10 sequence (Q9H5P4 81-178, limits assumed, looked up): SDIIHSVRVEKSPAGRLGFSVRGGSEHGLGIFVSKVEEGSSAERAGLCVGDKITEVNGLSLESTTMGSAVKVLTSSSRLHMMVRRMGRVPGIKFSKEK

T11: RGS12, O14924
T11 sequence (O14924 17-108, limits assumed, looked up): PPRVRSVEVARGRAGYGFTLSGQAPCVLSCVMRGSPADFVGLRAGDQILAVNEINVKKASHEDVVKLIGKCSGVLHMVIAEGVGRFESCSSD

T12: USH1C_3, Q9Y6N9
T12 sequence (Q9Y6N9 447-547, limits assumed, looked up): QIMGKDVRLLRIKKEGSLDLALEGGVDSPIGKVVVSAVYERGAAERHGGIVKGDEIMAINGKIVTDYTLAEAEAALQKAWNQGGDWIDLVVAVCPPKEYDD

T13: MPDZ_6, O75970
T13 sequence (O75970 1003-1099, limits assumed, looked up): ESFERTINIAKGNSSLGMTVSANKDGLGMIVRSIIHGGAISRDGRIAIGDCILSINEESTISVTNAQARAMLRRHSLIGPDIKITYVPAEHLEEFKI

T14: PDZD2_3, O15018
T14 sequence (O15018 581-682, limits assumed, looked up): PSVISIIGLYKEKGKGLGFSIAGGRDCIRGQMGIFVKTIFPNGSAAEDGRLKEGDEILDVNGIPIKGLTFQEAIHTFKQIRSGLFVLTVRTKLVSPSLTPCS

T15: PDZD2_4, O15018
T15 sequence (O15018 723-823, limits assumed, looked up): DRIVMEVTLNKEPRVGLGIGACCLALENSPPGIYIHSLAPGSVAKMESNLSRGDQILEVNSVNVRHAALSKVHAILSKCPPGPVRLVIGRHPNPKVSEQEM

T16: SHANK3, Q9BYB0
T16 sequence (Q9BYB0 641-750, limits assumed, looked up): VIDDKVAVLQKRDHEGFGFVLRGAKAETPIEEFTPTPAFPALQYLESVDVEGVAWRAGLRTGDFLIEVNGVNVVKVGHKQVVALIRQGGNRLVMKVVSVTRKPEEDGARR


Legend:
Test in all cases: holdup assay
Parameters in all cases: key: below the threshold = too weak to quantify, mostly under pKd 3.1 to 4
NHERF2_1, Q15599 = biological target: NHERF2_1, Q15599
Sequence of NHERF2_1, Q15599 (Q15599 9-91): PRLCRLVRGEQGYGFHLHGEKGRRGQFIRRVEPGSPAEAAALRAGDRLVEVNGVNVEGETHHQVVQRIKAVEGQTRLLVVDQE

MPDZ_13, O75970 = biological target: T1, MPDZ_13, O75970
MLLT4, P55196 = biological target: T2, MLLT4, P55196
SHROOM3, Q8TF72 = biological target: T3, SHROOM3, Q8TF72
PDZRN3_2, Q9UPQ7 = biological target: T4, PDZRN3_2, Q9UPQ7; settings: plain residues with an end cap or a label only (N-terminal biotin on a linker: (peg)3)
USH1C_2, Q9Y6N9 = biological target: T5, USH1C_2, Q9Y6N9
MAGIX, Q9H6Y5 = biological target: MAGIX, Q9H6Y5
Sequence of MAGIX, Q9H6Y5 (Q9H6Y5 118-211): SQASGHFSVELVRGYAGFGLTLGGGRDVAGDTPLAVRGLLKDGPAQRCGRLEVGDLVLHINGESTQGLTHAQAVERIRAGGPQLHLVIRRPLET

PDLIM3, Q53GG5 = biological target: T6, PDLIM3, Q53GG5
PTPN13_5, Q12923 = biological target: T7, PTPN13_5, Q12923
SHROOM2, Q13796 = biological target: T8, SHROOM2, Q13796
MPP5, Q8N3R9 = biological target: T9, MPP5, Q8N3R9
PDZD7_1, Q9H5P4 = biological target: T10, PDZD7_1, Q9H5P4
RGS12, O14924 = biological target: T11, RGS12, O14924; settings: plain residues with an end cap or a label only (N-terminal biotin on a linker: (peg)3)
USH1C_3, Q9Y6N9 = biological target: T12, USH1C_3, Q9Y6N9
PARD3B_2, Q8TEW8 = biological target: PARD3B_2, Q8TEW8
Sequence of PARD3B_2, Q8TEW8 (Q8TEW8 376-471): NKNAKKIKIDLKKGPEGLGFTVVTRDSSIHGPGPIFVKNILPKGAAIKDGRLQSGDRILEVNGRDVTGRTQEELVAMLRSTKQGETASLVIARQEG

MPDZ_6, O75970 = biological target: T13, MPDZ_6, O75970
PDZD2_3, O15018 = biological target: T14, PDZD2_3, O15018
PDZD2_4, O15018 = biological target: T15, PDZD2_4, O15018
SHANK3, Q9BYB0 = biological target: T16, SHANK3, Q9BYB0
[1] = plain residues with an end cap or a label only (N-terminal biotin on a linker: (peg)3)
[2] = modified: phospho on T at position -2 from the C-terminal residue

Binder	pKd (NHERF2_1, Q15599; [1])	pKd (MPDZ_13, O75970; [1])	pKd (MLLT4, P55196; [1])	pKd (SHROOM3, Q8TF72; [1])	pKd (PDZRN3_2, Q9UPQ7)	pKd (USH1C_2, Q9Y6N9; [1])	pKd (MAGIX, Q9H6Y5; [1])	pKd (PDLIM3, Q53GG5; [1])	pKd (PTPN13_5, Q12923; [1])	pKd (SHROOM2, Q13796; [1])	pKd (MPP5, Q8N3R9; [1])	pKd (PDZD7_1, Q9H5P4; [1])	pKd (RGS12, O14924)	pKd (USH1C_3, Q9Y6N9; [1])	pKd (PARD3B_2, Q8TEW8; [1])	pKd (MPDZ_6, O75970; [1])	pKd (PDZD2_3, O15018; [1])	pKd (PDZD2_4, O15018; [1])	pKd (SHANK3, Q9BYB0; [1])	further results
RRRRSQSRESQC [HBV-HBc, P03193]	below the threshold	below the threshold	below the threshold	below the threshold	below the threshold	4.09	below the threshold	4.1	below the threshold	below the threshold	below the threshold	below the threshold	below the threshold	below the threshold	3.85	below the threshold	below the threshold	below the threshold	below the threshold	
RYEDTTLVEDTVL [WNV-NS5, Q9Q6P4]	4.19	below the threshold	below the threshold	below the threshold	below the threshold	below the threshold	below the threshold	below the threshold	below the threshold	4.14	below the threshold	below the threshold	below the threshold	below the threshold	below the threshold	3.94	below the threshold	below the threshold	4.59	
SSRTRRETQL [HPV16-E6_-2P, P03126]																				pKd (NHERF2_1, Q15599; [2]): below the threshold; pKd (MPDZ_13, O75970; [2]): below the threshold; pKd (MLLT4, P55196; [2]): below the threshold; pKd (SHROOM3, Q8TF72; [2]): below the threshold; pKd (USH1C_2, Q9Y6N9; [2]): 4.45; pKd (MAGIX, Q9H6Y5; [2]): below the threshold; pKd (PDLIM3, Q53GG5; [2]): below the threshold; pKd (PTPN13_5, Q12923; [2]): below the threshold; pKd (SHROOM2, Q13796; [2]): below the threshold; pKd (MPP5, Q8N3R9; [2]): below the threshold; pKd (PDZD7_1, Q9H5P4; [2]): below the threshold; pKd (USH1C_3, Q9Y6N9; [2]): below the threshold; pKd (PARD3B_2, Q8TEW8; [2]): below the threshold; pKd (MPDZ_6, O75970; [2]): below the threshold; pKd (PDZD2_3, O15018; [2]): below the threshold; pKd (PDZD2_4, O15018; [2]): below the threshold; pKd (SHANK3, Q9BYB0; [2]): below the threshold
QQSMSSADSTQA [SARS-Cov2-N, P0DTC9]	below the threshold	below the threshold	below the threshold	below the threshold	below the threshold	below the threshold	below the threshold	below the threshold	below the threshold	below the threshold	below the threshold	below the threshold	below the threshold	below the threshold	below the threshold	below the threshold	below the threshold	below the threshold	below the threshold	
